Each block holds one binder with its values, some of them ahead of it.
Legend:
[1] = biological target: T1, His-tagged dAbp1-237-313 fragment (Dictyostelium discoideum, UniProt Q557J6 237-313); experiment: pull-down
T1 sequence (looked up): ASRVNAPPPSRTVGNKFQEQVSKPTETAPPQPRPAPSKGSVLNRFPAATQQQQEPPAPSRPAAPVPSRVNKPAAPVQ

[2] = biological target: T2, histidine (His)-tagged full-length dAbp1 (Dictyostelium discoideum, UniProt Q557J6 1-481); experiment: pull-down
T2 sequence (looked up): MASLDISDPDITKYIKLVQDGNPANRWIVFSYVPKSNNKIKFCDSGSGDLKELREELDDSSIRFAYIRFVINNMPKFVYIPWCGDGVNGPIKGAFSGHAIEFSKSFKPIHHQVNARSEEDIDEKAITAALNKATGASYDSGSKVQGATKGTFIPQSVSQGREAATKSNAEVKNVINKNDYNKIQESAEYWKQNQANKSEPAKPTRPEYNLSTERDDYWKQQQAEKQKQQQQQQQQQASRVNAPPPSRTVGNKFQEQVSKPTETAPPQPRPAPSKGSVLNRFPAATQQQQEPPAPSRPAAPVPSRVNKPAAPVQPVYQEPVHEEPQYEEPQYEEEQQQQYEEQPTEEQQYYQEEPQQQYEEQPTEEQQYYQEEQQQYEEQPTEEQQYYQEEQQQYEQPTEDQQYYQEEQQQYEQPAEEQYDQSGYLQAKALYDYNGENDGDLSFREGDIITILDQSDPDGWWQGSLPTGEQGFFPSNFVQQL

[3] = biological target: rabbit muscle actin filaments (rabbit, UniProt P68135 1-377); experiment: co-sedimentation

- binding result [1]: binds
- binding result [2]: binds
B1: GST-dAbp1-SH3 domain fusion protein (domain or fragment, Dictyostelium discoideum, UniProt Q557J6 426-481, looked up)
chain: QAKALYDYNGENDGDLSFREGDIITILDQSDPDGWWQGSLPTGEQGFFPSNFVQQL

- Kd in the presence of an equimolar amount of GST-PakB-1-120 [3]: 1100 ± 400 nM
B2: GST-dAbp1 (natural protein)
chain: T2 sequence (looked up)

Reference: paper PMC3708727 (Molecular Biology of the Cell, 2013)
